Assay results as given in US20260070949A1 (NOVOZYMES A S, published 2026).

Columns and labels:
[1] = target: T1, active deamidase from Chryseobacterium sp-62563 (Chryseobacterium sp-62563); assay: nanoDSF at 330 nm, Tm of the deamidase/inhibitor complex; active deamidase alone (SEQ ID NO: 4) gave 66.3° C.
T1 construct: Protein-glutamine glutaminase (EC 3.5.1.44), called 'active deamidase'
T1 chain: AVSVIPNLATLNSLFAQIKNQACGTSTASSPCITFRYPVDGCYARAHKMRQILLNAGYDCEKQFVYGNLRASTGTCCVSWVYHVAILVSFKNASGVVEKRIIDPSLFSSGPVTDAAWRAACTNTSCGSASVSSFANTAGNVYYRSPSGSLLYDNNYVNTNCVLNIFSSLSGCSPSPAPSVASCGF
Protocol: 60 μL sample was transferred in replicates to a black-bottomed 384 well plate, and the plate was briefly centrifugated to remove potential air bubbles.
The thermal unfolding temperature of the samples was analyzed using a Prometheus NT.Plex system from NanoTemper Technologies GmbH, with the following settings: [0305] (i) Temperature scan rate: 3.3° C. per minute; and [0306] (ii) Temperature scan interval: 20-95° C.
Using the nanoDSF procedure, as described in Example 2, the thermal unfolding temperature of an active deamidase and the corresponding deamidase/inhibitor complex was measured.

[2] = target: T2, deamidase inhibitor from Chryseobacterium sp-62563
T2 chain: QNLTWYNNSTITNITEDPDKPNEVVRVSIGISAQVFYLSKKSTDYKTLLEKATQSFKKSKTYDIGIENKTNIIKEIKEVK

B1: deamidase inhibitor from Chryseobacterium sp-62563 (other)
chain: QNLTWYNNSTITNITEDPDKPNEVVRVSIGISAQVFYLSKKSTDYKTLLEKATQSFKKSKTYDIGIENKTNIIKEIKEVK
Question: Which “NanoDSF thermal unfolding temperature” value [1] does the source give for B1 here?
Answer: The value was 70.1 ° C.

B2: active deamidase from Chryseobacterium sp-62563 (protein)
chain: AVSVIPNLATLNSLFAQIKNQACGTSTASSPCITFRYPVDGCYARAHKMRQILLNAGYDCEKQFVYGNLRASTGTCCVSWVYHVAILVSFKNASGVVEKRIIDPSLFSSGPVTDAAWRAACTNTSCGSASVSSFANTAGNVYYRSPSGSLLYDNNYVNTNCVLNIFSSLSGCSPSPAPSVASCGF
Question: With B2 as the binder, how does the “deamidase activity (% initial rate), fluorescence substrate FITC-PP-Dnp with glutamyl endopeptidase” value [2] read?
Answer: The value was “the deamidase activity (% initial rate) was significantly reduced”.
